Patent US20180030434A1 (Genentech, published 2018)
Where a chain is given by its changes, count along the chain named. Names and notes keep the numbering of the source.

T1: human VEGF (8-109) (human, UniProt P15692 214-315, ALEXA FLUOR 488 or ALEXA FLUOR 647 succinimidyl ester label in the flow cytometry experiments)
T1 construct: range 8-109; The SPR section says only 'human VEGF'; also called VEGF antigen
T1 sequence (looked up): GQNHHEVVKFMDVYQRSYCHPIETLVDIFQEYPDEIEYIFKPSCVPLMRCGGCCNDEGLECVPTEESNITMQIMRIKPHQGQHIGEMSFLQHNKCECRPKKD

B1: anti-IL-13 half-antibody WT (antibody, V domains shown)
VH: QVTLRESGPALVKPTQTLTLTCTVSGFSLSAYSVNWIRQPPGKALEWLAMIWGDGKIVYNSALKSRLTISKDTSKNQVVLTMTNMDPVDTATYYCAGDGYYPYAMDNWGQGSLVTVSS
VL: DIVMTQSPDSLSVSLGERATINCRASKSVDSYGNSFMHWYQQKPGQPPKLLIYLASNLESGVPDRFSGSGSGTDFTLTISSLQAEDVAVYYCQQNNEDPRTFGGGTKVEIK
notes: Half-antibody (one heavy and one light chain, knobs-into-holes Fc); Expressed in the E. coli periplasm; for SPR captured from periplasmic extract; also called anti-IL-13 WT; Half-Ab
B2: anti-IL-13 half-antibody framework variant F27L (heavy chain) (antibody, name in Kabat numbering, V domains shown)
VH: B1 VH with F27L
VL: B1 VL
notes: Half-antibody
B3: anti-IL-13 half-antibody framework variant E6Q (heavy chain) (antibody, name in Kabat numbering, V domains shown)
VH: B1 VH with E6Q
VL: B1 VL
notes: Half-antibody
B4: anti-IL-13 half-antibody framework variant M4L (light chain) (antibody, name in Kabat numbering, V domains shown)
VH: B1 VH
VL: B1 VL with M4L
notes: Half-antibody

Legend:
human VEGF (8-109) = target: T1, human VEGF (8-109); test: flow cytometry (SSC against labeled VEGF) of the anti-VEGF spiking experiment, bacterial antibody display; no unstained control is drawn in these panels
Description: For bacterial display, antibodies were expressed in a Lpp deletion (Δlpp) of strain 62A7. […] After 24 hours at 30° C., 1 OD aliquots were harvested and pelleted by centrifugation (4 minutes, 6500 rcf). Cells were resuspended in 100 μL PBS pH 7.4 with 2% BSA and 5 mM EDTA and incubated at 4° C. for 30 minutes. After initial incubation, SYTO® 41 or 9 nucleic acid stain (Molecular Probes, USA) was added to a final dilution of 1:100, and ALEXA⁴⁶⁸- or ALEXA⁶⁴⁷-labeled antigen added to a final concentration of 1-2 μM. Incubation was continued at 4° C. in darkness for 1 hour, at which time MgCl₂ was added to 10-20 mM final concentration. Unbound proteins were removed by washing 3 times with 1 mL volumes of PBS pH 7.4+20 mM MgCl₂. […] The FACS™ gating strategy included cells that were SYTO® dye-positive. Doublet discrimination gates were used to remove doublets and finally antigen-positive cells were sorted.

[1] = target: T2, Unizyme-tagged human IL-13 (33-146) (human, UniProt P35225 33-146, ALEXA FLUOR 488 or ALEXA FLUOR 647 succinimidyl ester label in the staining and flow cytometry experiments); test: SPR (Biacore 3000), half-antibody from E. coli periplasmic extract captured by Fab Binder, human IL-13 as analyte, 25 C
T2 construct: range 33-146; The SPR section says only 'Human IL-13'; also called huIL-13; IL-13 antigen; not shown: Unizyme tag
T2 sequence (P35225 33-146, form in doubt): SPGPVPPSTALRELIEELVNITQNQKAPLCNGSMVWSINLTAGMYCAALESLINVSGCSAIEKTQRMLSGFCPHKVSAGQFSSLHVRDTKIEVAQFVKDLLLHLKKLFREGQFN

Row | Binder | binding result (human VEGF (8-109)) | Kd [1] | koff [1] | kon [1]
1 | B1 | no binding | 40 pM | 5.09e-05 s⁻¹ | 1.3e+06 M⁻¹ s⁻¹
2 | B2 | – | 34 pM | 4.43e-05 s⁻¹ | 1.3e+06 M⁻¹ s⁻¹
3 | B3 | – | 38 pM | 4.26e-05 s⁻¹ | 1.13e+06 M⁻¹ s⁻¹
4 | B4 | – | 29 pM | 3.16e-05 s⁻¹ | 1.11e+06 M⁻¹ s⁻¹
